Test results taken from the nanobody polyreactivity screen of Harvey et al. (2022).

Assay: yeast display, Sf9 membrane polyspecificity reagent, FACS + sequencing; frameworks hold sequencing errors
In short: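 Nanobodies from a synthetic yeast display library (Saccharomyces cerevisiae BJ5465), induced 36–48 hours with galactose, were stained 1 hour at 4 °C with 10% biotinylated, detergent-solubilized Sf9 membrane reagent, enriched on streptavidin microbeads, then FACS-sorted. Anti-HA (expression) and streptavidin (reagent binding) fluorescence set low and high (top ~1%) gates. Polyreactivity labels come from the gate of origin. Genes were colony-PCR amplified, MiSeq 2 × 250 sequenced and filtered by CDR length.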

Row | Sequence | polyreactivity (PSR sort gate)
1 | QVQLVESGGGLVQAGGSLRLSCAASGSIFFSYAMGWYRKAPGKERELVAAIDYSGGGTYYADSVKGRFTISRDNAKNTVYLQMNSLKPEDTAVYYCKSDTEVWADTFISYRALNYWGQGTQVTVSS | low polyreactivity
2 | QVQLVESGGGLVQAGGSLRLSCAASGSIFFTNAMGWYRQAPGKERELVASITSSGGSTYYADSVKGRFTISRDNAKNTVYLQMNSLKPEDTAVYYCARDRWPFWYSPSGVYRYYYWGQGTQVTVSS | low polyreactivity
3 | QVQLVESGGGLVQAGGSLRLSCAASGSIFFTYAMGWYRQEPGKERELVAAINSSGGSTYYADSVKGRFTISRDNAKNTVYLQMNSLKPEDTAVYYCAAYRYWSTPRYYWGQGTQVTVSS | high polyreactivity
4 | QVQLVESGGGLVQAGGSLRLSCAASGSIFFTYVMGWYRQAPGKERELVAAISSDDNTNYADSVKGRFTISRDNAKNTVYLQMNSLKPEDTAVYYCNADTTLYPYYDYGYYDYDYWGQGTQVTVSS | low polyreactivity
5 | QVQLVESGGGLVQAGGSLRLSCAASGSIFFVYAMGWYRQAPGKERELVAAITWSGGRTYYADSVKGRFTISRDNAKNTVYLQMNSLKPEDTAVYYCAARKYSDYFTPRYYYWGQGTQVTVSS | high polyreactivity
6 | QVQLVESGGGLVQAGGSLRLSCAASGSIFFWNTMGWYRQAPGKERELVAAISSGGSTYYADSVKGRFTISRDTAKNTVYLQMNSLRPEDTAVYYCAAVYSGLYSYYYWGQGTQVTVSS | low polyreactivity
7 | QVQLVESGGGLVQAGGSLRLSCAASGSIFFWYAMGWYRQAPGKVRELVAAISYSGSRTYYSDSVKGRFTISRDNAKNTVYLQMNSLKPEDTAVDYFNVSLYSGAEYDYWGQGTQVTVSS | high polyreactivity
8 | QVQLVESGGGLVQAGGSLRLSCAASGSIFFYAMGWYIQAPGKERQLVAAISWRGGSTYADSVKGRFTISRDNAKKTVYLQMKSLKPEDTAVYYCAKDWVRSGAVIDYDYWGQGTQVTVSS | high polyreactivity
9 | QVQLVESGGGLVQAGGSLRLSCAASGSIFFYAMGWYRQAPGKERELVADITYTGGSKYADSVKGRFTISRDYAKNTVYLQMNSLKPEDTAVYYCAKLDGGLFDYWGQGTQVTVSS | low polyreactivity
10 | QVQLVESGGGLVQAGGSLRLSCAASGSIFFYNAMGWYRQAPGKERELVAAISRGGNTNYADSVKGRFTISRDNANNTVYLQMNSLKPEDTAVYYCNAESLSGAHGYWGQGTQVTVSS | low polyreactivity
11 | QVQLVESGGGLVQAGGSLRLSCAASGSIFFYYAMGWYRQAPGKERELVASISTDGSTYADSVKGRFTISRDNAKNTVSLQMNSLKPEDTAFYYCATRGAEAERFASYDFDYWGQGTQVTVSS | low polyreactivity
12 | QVQLVESGGGLVQAGGSLRLSCAASGSIFFYYTMGWYRQAPGKEREMVAAISVGGSTYYADSVKGRFTISSDNAKNTVYLQMKSLKPEDTAVYYCNAVPAKGYVTVVRYYYWGLGTQVTVSS | low polyreactivity
13 | QVQLVESGGGLVQAGGSLRLSCAASGSIFGANAMGWYRKAPGKERELVAAISTRGGRTYYADSVKGRFTISRDNAKNTVYLQMNSLKPEDTAVYYCATSGGRPYKYEYWGQGTQVTVSS | high polyreactivity
14 | QVQLVESGGGLVQAGGSLRLSCAASGSIFGDNAMGWYRQAPGKERELVAAIDSDGSTNYADSVNGRFTISRDNAKNTVYLQMNSLKPEDTAVYYCAASEPYSKPYTYDYWGQGTQVTVSS | low polyreactivity
15 | QVQLVESGGGLVQAGGSLRLSCAASGSIFGDNAMGWYRQAPGKERELVAAITSSGGSTYYADSVKGRFTISRDNAKNSVYLQMNSLKPEDTAVYYCNADFGYGWYLRYDYWGLGTQVTVSS | high polyreactivity
16 | QVQLVESGGGLVQAGGSLRLSCAASGSIFGDYVMGWYRQAPGKERELVAAISGNGGRTYYADSVKGRFTISRDNAKNTVYLQMNSLKPEDTAVYYCAKVRSVTIGRDYWGQGTQVTVSS | high polyreactivity
17 | QVQLVESGGGLVQAGGSLRLSCAASGSIFGDYVMGWYRQAPGNERELVAAINRGGSTYYADSVKGRFSISRDNAKNTVYLQMNSLTAEDTAVYFCAAGYPSWYYCYPYDSWGQGTQVTVSS | low polyreactivity
18 | QVQLVESGGGLVQAGGSLRLSCAASGSIFGENAMGWYRQAPGKERELVAAITWSGASTYYADSVKGRFTISRDNAKNTVYLQMNSLKPEDTAVYYCNADRYVRYSTFDYWGQGTQVTVSS | high polyreactivity
19 | QVQLVESGGGLVQAGGSLRLSCAASGSIFGFNAMGWYRQAPGKERELVAAINGGGTTYYADSVKGRFTISRDNAKNTVYLQMNSLIPEDTAVYYCAATPNGYYYLGYDYWGQGTQVTVSS | low polyreactivity
20 | QVQLVESGGGLVQAGGSLRLSCAASGSIFGFNAMGWYRQAPGKERELVAAISSGSTYYADSVKGRFTISRDNAKNTVYLQKNSLKPEDTAVYYCAATTGYSWYGYWGQGPQVTVSS | low polyreactivity

Row | Sequence | polyreactivity (PSR sort gate)
21 | QVQLVESGGGLVQAGGSLRLSCAASGSIFGFNAMGWYRQAPGKERELVASISSSGDSTYYADSVKGRFTISRDNAKNTVYLLMNSLKPEDTAVYYCATEGRTDYNREMEYWGQGTQVTVSS | low polyreactivity
22 | QVQLVESGGGLVQAGGSLRLSCAASGSIFGFYAMGWYRQAPGKERELVAAIRYTGGSTYYADSVKGRFTISRDNAKNTVYLQMNSLKPEDTAVYYCNARTFRRYVSYSRTYVGYDYWGQGTQVTVSS | high polyreactivity
23 | QVQLVESGGGLVQAGGSLRLSCAASGSIFGFYAMGWYRQAPGKERELVAAISDSGDSTYYADSVKGRFTISRDNAKNTVYLQMNSLKPEDTAVYYCATDGRSNYYWGDYWGQGTQVTVSS | low polyreactivity
24 | QVQLVESGGGLVQAGGSLRLSCAASGSIFGFYAMGWYRQAPWKERELVAAINSNSGSTYYADSVKGRFTISRDNAKNTVYLQMNSLKPEDTAVYYCAARSPYVTPQGFNYCGQGTQVTVSS | high polyreactivity
25 | QVQLVESGGGLVQAGGSLRLSCAASGSIFGFYMGWYRQAPGKERELVAAISGSGGNTYYADSVKGRFTISRDNAKNTVYLQMNSLKPEDTAVYYCAAVSRHRGWDRYYWGQGTQVTVSS | high polyreactivity
26 | QVQLVESGGGLVQAGGSLRLSCAASGSIFGGNAMGWYRQAPGKERELVAAITTGDGSTYYADSVKGRFTISRDNAKNTVYLQMNSLKPEDTAVYYCAADIVHDRFDYWGQGTQVTVSS | low polyreactivity
27 | QVQLVESGGGLVQAGGSLRLSCAASGSIFGGNAMGWYRQAPGKERELVATITSAGSTYYADSVKGRFTISRDNAKNTVYLQMNSLKPEDTAVYYCAADPTYYWRYYPTRLYVEYDYWGQGTQVTVSS | low polyreactivity
28 | QVQLVESGGGLVQAGGSLRLSCAASGSIFGGNTMGWYRQAPGKERELVAAISWSGGRTYYADSVKGRFTISRDNAKNTVYLQMNSLKPEDTAVYYCAATFRGVLGWYHYEYWGQGTQVTVSS | high polyreactivity
29 | QVQLVESGGGLVQAGGSLRLSCAASGSIFGGYAMGWYRQAPGKERELVAAISSGGSTYYADSVKGRFTISRDNAKNTVYLQMNSLKPEDTAVYYCATSTYADRRNSYYYTRPRFGYWGQGTQVTVSS | high polyreactivity
30 | QVQLVESGGGLVQAGGSLRLSCAASGSIFGGYAMGWYRQAPGKERELVARIRVSGGRTYYADSVKGRFTISRDNAKNTVYLQMISLKPEDTAVYYCAVDRYWWLDGYDYWGQGTQVTVSS | high polyreactivity
31 | QVQLVESGGGLVQAGGSLRLSCAASGSIFGGYAMGWYRQAPGKERELVARITDRGGSTDYADSVKGRFTISRDNAKNTVYLQMNSLKPEDTAVYYCAKRGDRYEKRPRDYWGQGTQVTVSS | low polyreactivity
32 | QVQLVESGGGLVQAGGSLRLSCAASGSIFGGYAMGWYRQAPGKERELVAVISSGGSTNYADSVKGRFTISRDNAKNTVYLQMNSLKPEDTAVYYCAATVIYAYRGHFYQYDYWGQGTQVTVSS | high polyreactivity
33 | QVQLVESGGGLVQAGGSLRLSCAASGSIFGGYAMGWYRQAPGNERELVAAITYSAGNTYYADSVKGRFTISRDNAKNTVYLKMKSLKPEDTAVYYCAARTYRGPQYQYGNNYWGQGTQVTVSS | high polyreactivity
34 | QVQLVESGGGLVQAGGSLRLSCAASGSIFGGYGMGWYRQAPGKERQLVAAITSGSSTYYADSVKGRFTISRDNAKNTVYLQMNSLKPEDTAVYYCAARPYPHSAYQGDYWGRGTQVTVSS | low polyreactivity
35 | QVQLVESGGGLVQAGGSLRLSCAASGSIFGINAMGWYRPAPGKERQLVAAISGSTSRSYYADSVKGRFTISRDNAKNTVYLQMNSLKPEDTAVYYCAVVGLRSVTRRSYYWGQGTQVTVSS | high polyreactivity
36 | QVQLVESGGGLVQAGGSLRLSCAASGSIFGIYAMGWYRQAPGKERELVAAIDSSGTSTYYADSVKGRFTISRDNAKNTVYLQMNSLKPEDTAVYYCAAYHRISKNNYLGQGTQVTVSS | low polyreactivity
37 | QVQLVESGGGLVQAGGSLRLSCAASGSIFGIYTMGWYRQAPGKERELVAAITSVGSTNYADSVKGRFTISRDNAKNTVYLQMNSLKPEDTAGYYCARASAWYVTLVGKYTKYDYWGQGTQVTVSS | low polyreactivity
38 | QVQLVESGGGLVQAGGSLRLSCAASGSIFGIYVMGWYRQAPGKERELVAGISTRGGSTYYADSVKGRFTISRDNAKNTVYLQMNSLKPEDTAVYYCAAVPASYRYPMYYWGQGTQVNVSS | low polyreactivity
39 | QVQLVESGGGLVQAGGSLRLSCAASGSIFGKDAMVWYRQAPGKEREFVAGIRGSGTRTYYADSVKGRFTISRDNAKNTVYLQLNSLKPEDTAVYYCNAVFGYRGPYYYWGQGTQVTVSS | high polyreactivity
40 | QVQLVESGGGLVQAGGSLRLSCAASGSIFGKNAMGWYRPAPGKERELVAAITRRGGSTYYADSVKGRFTISRDNAKNTVYLQMISLKPEDTAVYYCNALLTGGYQDSYPDDYWGQGTQVTVSS | high polyreactivity
